We go through three molecules from patent publication US20210324028A1 (Pfizer, published 2021).

The target in test [1] is human PD-1 on cells of human PBMCs (human, UniProt Q15116 25-288). As to the kind of experiment: cell-based or functional assay.
In test [2] the target is T1, human CD122/CD132 on cells of human PBMCs (human, UniProt P14784 27-551; P31785 23-369).
T1 sequence (looked up) 1: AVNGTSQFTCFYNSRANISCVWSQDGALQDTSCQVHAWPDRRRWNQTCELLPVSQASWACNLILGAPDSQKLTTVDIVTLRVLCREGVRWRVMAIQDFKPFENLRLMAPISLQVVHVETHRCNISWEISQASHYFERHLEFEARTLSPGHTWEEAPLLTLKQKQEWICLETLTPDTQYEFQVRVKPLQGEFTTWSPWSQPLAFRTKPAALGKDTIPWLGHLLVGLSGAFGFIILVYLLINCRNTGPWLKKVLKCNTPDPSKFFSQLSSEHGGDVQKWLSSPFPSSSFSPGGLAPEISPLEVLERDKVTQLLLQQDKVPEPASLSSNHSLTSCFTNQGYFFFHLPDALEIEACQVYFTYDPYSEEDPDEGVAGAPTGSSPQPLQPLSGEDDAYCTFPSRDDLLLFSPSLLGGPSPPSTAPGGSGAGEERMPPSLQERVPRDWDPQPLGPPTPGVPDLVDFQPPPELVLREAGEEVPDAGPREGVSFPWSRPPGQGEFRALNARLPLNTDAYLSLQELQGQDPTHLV
T1 sequence (looked up) 2: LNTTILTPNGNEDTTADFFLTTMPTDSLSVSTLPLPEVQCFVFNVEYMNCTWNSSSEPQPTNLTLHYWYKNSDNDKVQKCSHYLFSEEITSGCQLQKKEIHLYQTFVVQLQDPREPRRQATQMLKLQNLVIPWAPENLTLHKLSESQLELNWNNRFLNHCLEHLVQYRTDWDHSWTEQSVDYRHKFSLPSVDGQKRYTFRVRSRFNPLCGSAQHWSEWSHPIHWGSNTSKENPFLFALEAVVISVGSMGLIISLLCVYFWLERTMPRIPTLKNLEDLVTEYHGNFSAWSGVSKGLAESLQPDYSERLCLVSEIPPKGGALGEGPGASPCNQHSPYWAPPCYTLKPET
In words: cell-based or functional assay.

The target in another test is T2, human IL-2Rβ (human, UniProt P14784 27-240, limits assumed).
T2 construct: also called hIL-2Rβ; IL-2 receptor beta
T2 sequence (looked up): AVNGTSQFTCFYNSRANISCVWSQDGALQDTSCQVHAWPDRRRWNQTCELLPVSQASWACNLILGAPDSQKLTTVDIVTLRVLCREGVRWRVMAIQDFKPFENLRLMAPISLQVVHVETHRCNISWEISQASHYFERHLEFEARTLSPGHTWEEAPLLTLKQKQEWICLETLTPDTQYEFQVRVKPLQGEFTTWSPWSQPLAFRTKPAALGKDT
As to the kind of experiment: SPR, fusion captured. As for the experimental part:
Anti-human Fc sensor chips were prepared at 25° C. with a running buffer of 10 mM HEPES, 150 mM NaCl, 0.05% (v/v) Tween-20, pH 7.4. All surfaces of a Biacore CM4 sensor chip were activated with a 1:1 (v/v) mixture of 400 mM EDC and 100 mM NHS for 7 minutes, at a flow rate of 10 μL/min. An anti-human Fc reagent (Goat anti-human IgG Fc-γ specific, SouthernBiotech, Birmingham, Ala., Catalog #2014-01) was diluted to 50 μg/mL in 10 mM sodium acetate (pH 4.5) and injected on all flow cells for 7 minutes at 20 μL/min. All flow cells were blocked with 100 mM ethylenediamine in 200 mM Borate buffer pH 8.5 for 7 minutes at 10 μL/min.
All protein interaction experiments were performed at 37° C. using a running buffer of 10 mM HEPES, 150 mM NaCl, 0.05% (v/v) Tween-20, pH 7.4, 1 mg/mL BSA. Anti-PD-1-hIL-15 fusion proteins were captured at 10 μg/mL at a flow rate of 10 μL/min for 2 minutes. Different fusion proteins were captured in flow cells 2, 3 and 4. No protein was captured onto flow cell 1 which was used as a reference surface. […] After each analyte injection, dissociation was monitored for 5 minutes followed by regeneration of all flow cells with three 60-second injections of 75 mM phosphoric acid. […] For kinetic analysis, the double-referenced sensorgrams were fit globally to a simple 1:1 Langmuir with mass transport binding model using Biacore T200 Evaluation Software version 2.0. For steady-state affinity analysis, the double-referenced equilibrium binding responses were fit with a 1:1 Langmuir steady-state model using Biacore T200 Evaluation Software version 2.0.

Test [3] concerns the target T3, mouse PD-1 on doxycycline-induced 32D[pRF770+pRF791] cells (mouse, UniProt Q02242 25-288).
T3 sequence (looked up): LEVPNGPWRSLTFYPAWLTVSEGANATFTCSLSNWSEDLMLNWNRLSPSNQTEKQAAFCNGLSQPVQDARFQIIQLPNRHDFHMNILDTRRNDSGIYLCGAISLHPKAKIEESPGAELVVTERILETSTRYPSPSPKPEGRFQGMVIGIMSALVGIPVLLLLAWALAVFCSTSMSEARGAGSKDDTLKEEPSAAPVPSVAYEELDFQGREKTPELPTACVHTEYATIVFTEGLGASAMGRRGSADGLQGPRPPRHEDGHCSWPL
As to the kind of experiment: cell-based or functional assay.

In test [4] the target is T4, IL-15 signaling receptor on 32D[pRF770+pRF791] cells (human CD122 plus mouse CD132) (human; mouse, UniProt P14784 27-551; P34902 23-369).
T4 sequence (looked up) 1: T1 sequence (looked up) 1
T4 sequence (looked up) 2: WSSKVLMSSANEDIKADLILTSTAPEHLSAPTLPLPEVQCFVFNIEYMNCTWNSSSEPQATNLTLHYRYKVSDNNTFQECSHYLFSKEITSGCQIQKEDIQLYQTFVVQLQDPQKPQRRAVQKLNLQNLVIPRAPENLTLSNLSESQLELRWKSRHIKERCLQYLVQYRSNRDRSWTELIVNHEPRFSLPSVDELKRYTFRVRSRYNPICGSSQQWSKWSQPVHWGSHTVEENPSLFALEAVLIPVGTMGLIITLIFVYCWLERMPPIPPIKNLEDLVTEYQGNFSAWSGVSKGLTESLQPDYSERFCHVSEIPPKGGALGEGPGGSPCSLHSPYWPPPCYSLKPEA
As to the kind of experiment: cell-based or functional assay.

For a further test, the target named is T5, human IL-15Rα (human, UniProt Q13261 31-205, limits assumed).
T5 construct: also called hIL-15Rα; IL-15 receptor alpha
In words: SPR 37C, fusion captured by anti-human Fc. In a few lines: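 Anti-PD-1–hIL-15 fusions captured at 10 μg/mL on an anti-human Fc surface, receptor injected at 37 °C in HEPES-buffered saline with 0.05% Tween-20 and 1 mg/mL BSA, pH 7.4; 5 min dissociation.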

human PD-1 on cells of human PBMCs, sequence (Q15116 25-288): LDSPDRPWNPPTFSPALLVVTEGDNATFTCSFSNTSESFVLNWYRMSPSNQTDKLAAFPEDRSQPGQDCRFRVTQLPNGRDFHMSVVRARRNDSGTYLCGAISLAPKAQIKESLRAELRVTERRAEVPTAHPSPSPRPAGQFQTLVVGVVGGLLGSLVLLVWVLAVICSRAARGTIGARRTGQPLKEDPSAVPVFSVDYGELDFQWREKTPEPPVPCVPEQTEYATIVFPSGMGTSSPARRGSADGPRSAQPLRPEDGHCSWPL
T5 sequence (Q13261 31-205 limits assumed): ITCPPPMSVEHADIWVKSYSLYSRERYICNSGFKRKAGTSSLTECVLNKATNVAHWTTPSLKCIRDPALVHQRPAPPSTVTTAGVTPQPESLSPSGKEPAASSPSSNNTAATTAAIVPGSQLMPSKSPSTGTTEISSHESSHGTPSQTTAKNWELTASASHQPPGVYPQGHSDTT

B1: xhPD-1-IL15 m1 (other)
heavy 1: not shown
heavy 2: not shown
light: DIQMTQSPSSLSASVGDRVTITCKSSQSLWDSGNQKNFLTWYQQKPGKAPKLLIYWTSYRESGVPSRFSGSGSGTDFTLTISSLQPEDFATYYCQNDYFYPLTFGGGTKVEIKRTVAAPSVFIFPPSDEQLKSGTASVVCLLNNFYPREAKVQWKVDNALQSGNSQESVTEQDSKDSTYSLSSTLTLSKADYEKHKVYACEVTHQGLSSPVTKSFNRGEC
Turning to B1, in test [1], the “Fold change = EC50 (Isotype control--IL15)/EC50 (xhPD1--IL15), CD8+cm T cells” value was 47 fold; the “Fold change = EC50 (Isotype control--IL15)/EC50 (xhPD1--IL15), NK cells” value was 1.99 fold; the “pSTAT5 EC50 on human CD8+cm T cells (hPBMC)” value is 78 pM. Moreover, the “pSTAT5 EC50 on human NK cells (hPBMC)” value in test [2] stood at 0.475 nM.

B2: xhPD-1-IL15 m2 (other)
heavy 1: not shown
heavy 2: not shown
light: B1 light
B2: in test [1], the “Fold change = EC50 (Isotype control--IL15)/EC50 (xhPD1--IL15), CD8+cm T cells” value came to 76.5 fold; the “Fold change = EC50 (Isotype control--IL15)/EC50 (xhPD1--IL15), NK cells” value was found to be 1.36 fold; the “pSTAT5 EC50 on human CD8+cm T cells (hPBMC)” value came to 0.492 nM. In addition, in test [2], the “pSTAT5 EC50 on human NK cells (hPBMC)” value turned out to be 8.27 nM.

B3: xmPD-1-hIL15 V49R/Y26K/E64Q/D30N (other)
heavy 1: HHHHHHHHGGGGSGSGGEVQLVESGGGLVKPGGSLELSCAASGFTFSSYWMSWVRQAPEKGLEWVAAISPSGGSTYYADSVKGRFTISRDNAKNTLFLQMTSLRSEDTAMYYCAKESWGAYYDLWGQGTTVTVSSASTKGPSVFPLAPCSRSTSESTAALGCLVKDYFPEPVTVSWNSGALTSGVHTFPAVLQSSGLYSLSSVVTVPSSNFGTQTYTCNVDHKPSNTKVDKTVERKCRVRCPRCPAPPVAGPSVFLFPPKPKDTLMISRTPEVTCVVVAVSHEDPEVQFNWYVDGVEVHNAKTKPREEQFNSTFRVVSVLTVVHQDWLNGKEYKCKVSNKGLPSSIEKTISKTKGQPREPQVYTLPPSREEMTKNQVSLTCLVKGFYPSDIAVEWESNGQPENNYKTTPPMLDSDGSFFLYSRLTVDKSRWQQGNVFSCSVMHEALHNHYTQKSLSLSPGK
heavy 2: EVQLVESGGGLVKPGGSLELSCAASGFTFSSYWMSWVRQAPEKGLEWVAAISPSGGSTYYADSVKGRFTISRDNAKNTLFLQMTSLRSEDTAMYYCAKESWGAYYDLWGQGTTVTVSSASTKGPSVFPLAPCSRSTSESTAALGCLVKDYFPEPVTVSWNSGALTSGVHTFPAVLQSSGLYSLSSVVTVPSSNFGTQTYTCNVDHKPSNTKVDKTVERKCEVECPECPAPPVAGPSVFLFPPKPKDTLMISRTPEVTCVVVAVSHEDPEVQFNWYVDGVEVHNAKTKPREEQFNSTFRVVSVLTVVHQDWLNGKEYKCKVSNKGLPSSIEKTISKTKGQPREPQVYTLPPSREEMTKNQVSLTCEVKGFYPSDIAVEWESNGQPENNYKTTPPMLDSDGSFFLYSKLTVDKSRWQQGNVFSCSVMHEALHNHYTQKSLSLSPGSGGGGGTSATATPGANWVNVISDLKKIEDLIQSMHIDATLKTESNVHPSCKVTAMKCFLLELQRISLESGDASIHDTVQNLIILANNSLSSNGNVTESGCKECEELEEKNIKEFLQSFVHIVQMFINT
light: DIVMTQSPSSLSVSAGDKVTMSCRASQGISSWLAWYQQKPWQPPKLLIYKASTLESGVPDRFTGSGSGTDFTLTISSVQAEDLAVYYCQQSYSTPWTFGGGTKLEIKGTVAAPSVFIFPPSDEQLKSGTASVVCLLNNFYPREAKVQWKVDNALQSGNSQESVTEQDSKDSTYSLSSTLTLSKADYEKHKVYACEVTHQGLSSPVTKSFNRGEC
notes: not restated for this mutant; also called xmPD1 -V49R/Y26K/E64Q/D30N
B3 displayed a dissociation constant Kd with human IL-2Rβ of over 1500 nM. In test [3], the “Fold change = EC50 (PD-1(low))/EC50 (PD-1+)” value was 382 fold and the “pSTAT5 EC50 on PD-1+ 32D reporter cells” value stood at 56.1 pM. Further, in test [4], the “pSTAT5 EC50 on PD-1(low) 32D reporter cells” value stood at 21.4 nM. Moreover, the binding result with human IL-15Rα was “no binding (tested: 3000 nM)”.

As usually defined, the Kd is the equilibrium constant for the complex coming apart. Low values mean tighter binding, high ones weaker binding.
